Each block holds one binder with its values, some of them ahead of it.
Tests used:
Experiment in all cases: co-IP with anti-FLAG, N-FLAG B3GNT2, mass spectrometry
RPS14 = RPS14 (human, UniProt P62263 2-151)
RPL38 = RPL38 (human, UniProt P63173 1-70)
PRRC2C = biological target: T1, PRRC2C (human, UniProt Q9Y520-4 1-2817, limits assumed)
T1 construct: also called NP_055987.2 (+10)

TTC13 = biological target: T2, TTC13 (human, UniProt Q8NBP0-2 1-806, limits assumed)
T2 construct: also called NP_001116307.2 (+5)
T2 sequence (looked up): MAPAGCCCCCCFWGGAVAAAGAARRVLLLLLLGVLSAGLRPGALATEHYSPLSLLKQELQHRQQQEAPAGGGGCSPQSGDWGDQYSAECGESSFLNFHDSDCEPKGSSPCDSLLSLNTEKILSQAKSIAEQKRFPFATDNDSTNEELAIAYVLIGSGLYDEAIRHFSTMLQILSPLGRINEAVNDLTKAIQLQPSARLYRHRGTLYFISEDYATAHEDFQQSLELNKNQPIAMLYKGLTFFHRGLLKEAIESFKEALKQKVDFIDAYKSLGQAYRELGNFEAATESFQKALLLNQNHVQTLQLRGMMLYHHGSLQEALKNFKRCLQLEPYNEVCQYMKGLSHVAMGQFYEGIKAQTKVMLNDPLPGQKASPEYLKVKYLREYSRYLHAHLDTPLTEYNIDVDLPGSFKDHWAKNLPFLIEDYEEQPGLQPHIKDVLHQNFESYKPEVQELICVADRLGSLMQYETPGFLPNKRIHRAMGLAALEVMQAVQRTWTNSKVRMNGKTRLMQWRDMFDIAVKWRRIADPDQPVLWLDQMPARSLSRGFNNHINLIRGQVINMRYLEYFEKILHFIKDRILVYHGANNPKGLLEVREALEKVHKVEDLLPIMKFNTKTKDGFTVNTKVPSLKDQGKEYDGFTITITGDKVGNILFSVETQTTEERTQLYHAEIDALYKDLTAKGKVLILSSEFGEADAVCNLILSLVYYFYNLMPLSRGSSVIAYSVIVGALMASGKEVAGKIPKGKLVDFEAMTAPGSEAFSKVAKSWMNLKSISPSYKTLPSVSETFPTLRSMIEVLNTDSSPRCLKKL

JUP = biological target: T3, JUP (human, UniProt P14923 1-745)
T3 construct: also called NP_001339702.1
T3 sequence (looked up): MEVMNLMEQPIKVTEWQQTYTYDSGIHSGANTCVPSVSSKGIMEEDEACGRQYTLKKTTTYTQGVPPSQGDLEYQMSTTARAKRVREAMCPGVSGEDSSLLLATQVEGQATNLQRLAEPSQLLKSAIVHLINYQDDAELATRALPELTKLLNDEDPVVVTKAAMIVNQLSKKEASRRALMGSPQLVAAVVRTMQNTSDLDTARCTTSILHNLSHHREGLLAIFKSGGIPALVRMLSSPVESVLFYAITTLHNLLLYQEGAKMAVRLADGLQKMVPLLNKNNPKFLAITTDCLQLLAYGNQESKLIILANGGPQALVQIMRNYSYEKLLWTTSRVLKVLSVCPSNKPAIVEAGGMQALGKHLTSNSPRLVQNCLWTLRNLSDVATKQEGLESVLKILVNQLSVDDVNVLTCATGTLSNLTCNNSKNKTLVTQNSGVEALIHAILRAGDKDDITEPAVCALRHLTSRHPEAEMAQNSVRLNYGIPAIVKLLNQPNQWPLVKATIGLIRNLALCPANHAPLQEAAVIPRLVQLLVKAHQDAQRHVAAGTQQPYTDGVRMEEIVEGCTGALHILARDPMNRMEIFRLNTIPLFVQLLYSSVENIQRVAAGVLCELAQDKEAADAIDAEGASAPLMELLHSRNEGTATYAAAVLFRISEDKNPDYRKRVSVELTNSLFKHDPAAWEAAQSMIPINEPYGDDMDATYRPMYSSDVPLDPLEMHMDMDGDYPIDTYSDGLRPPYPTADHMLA

DDX3X = biological target: T4, DDX3X (human, UniProt O00571 2-662)
T4 construct: also called NP_001180345.1 (+1)

ARPC1B = biological target: T5, ARPC1B (human, UniProt O15143 2-372)
T5 construct: also called NP_005711.1

RPL7A = RPL7A (human, UniProt P62424 1-266)

T1 sequence (Q9Y520 other isoform, or with tags, fused parts or gaps limits assumed): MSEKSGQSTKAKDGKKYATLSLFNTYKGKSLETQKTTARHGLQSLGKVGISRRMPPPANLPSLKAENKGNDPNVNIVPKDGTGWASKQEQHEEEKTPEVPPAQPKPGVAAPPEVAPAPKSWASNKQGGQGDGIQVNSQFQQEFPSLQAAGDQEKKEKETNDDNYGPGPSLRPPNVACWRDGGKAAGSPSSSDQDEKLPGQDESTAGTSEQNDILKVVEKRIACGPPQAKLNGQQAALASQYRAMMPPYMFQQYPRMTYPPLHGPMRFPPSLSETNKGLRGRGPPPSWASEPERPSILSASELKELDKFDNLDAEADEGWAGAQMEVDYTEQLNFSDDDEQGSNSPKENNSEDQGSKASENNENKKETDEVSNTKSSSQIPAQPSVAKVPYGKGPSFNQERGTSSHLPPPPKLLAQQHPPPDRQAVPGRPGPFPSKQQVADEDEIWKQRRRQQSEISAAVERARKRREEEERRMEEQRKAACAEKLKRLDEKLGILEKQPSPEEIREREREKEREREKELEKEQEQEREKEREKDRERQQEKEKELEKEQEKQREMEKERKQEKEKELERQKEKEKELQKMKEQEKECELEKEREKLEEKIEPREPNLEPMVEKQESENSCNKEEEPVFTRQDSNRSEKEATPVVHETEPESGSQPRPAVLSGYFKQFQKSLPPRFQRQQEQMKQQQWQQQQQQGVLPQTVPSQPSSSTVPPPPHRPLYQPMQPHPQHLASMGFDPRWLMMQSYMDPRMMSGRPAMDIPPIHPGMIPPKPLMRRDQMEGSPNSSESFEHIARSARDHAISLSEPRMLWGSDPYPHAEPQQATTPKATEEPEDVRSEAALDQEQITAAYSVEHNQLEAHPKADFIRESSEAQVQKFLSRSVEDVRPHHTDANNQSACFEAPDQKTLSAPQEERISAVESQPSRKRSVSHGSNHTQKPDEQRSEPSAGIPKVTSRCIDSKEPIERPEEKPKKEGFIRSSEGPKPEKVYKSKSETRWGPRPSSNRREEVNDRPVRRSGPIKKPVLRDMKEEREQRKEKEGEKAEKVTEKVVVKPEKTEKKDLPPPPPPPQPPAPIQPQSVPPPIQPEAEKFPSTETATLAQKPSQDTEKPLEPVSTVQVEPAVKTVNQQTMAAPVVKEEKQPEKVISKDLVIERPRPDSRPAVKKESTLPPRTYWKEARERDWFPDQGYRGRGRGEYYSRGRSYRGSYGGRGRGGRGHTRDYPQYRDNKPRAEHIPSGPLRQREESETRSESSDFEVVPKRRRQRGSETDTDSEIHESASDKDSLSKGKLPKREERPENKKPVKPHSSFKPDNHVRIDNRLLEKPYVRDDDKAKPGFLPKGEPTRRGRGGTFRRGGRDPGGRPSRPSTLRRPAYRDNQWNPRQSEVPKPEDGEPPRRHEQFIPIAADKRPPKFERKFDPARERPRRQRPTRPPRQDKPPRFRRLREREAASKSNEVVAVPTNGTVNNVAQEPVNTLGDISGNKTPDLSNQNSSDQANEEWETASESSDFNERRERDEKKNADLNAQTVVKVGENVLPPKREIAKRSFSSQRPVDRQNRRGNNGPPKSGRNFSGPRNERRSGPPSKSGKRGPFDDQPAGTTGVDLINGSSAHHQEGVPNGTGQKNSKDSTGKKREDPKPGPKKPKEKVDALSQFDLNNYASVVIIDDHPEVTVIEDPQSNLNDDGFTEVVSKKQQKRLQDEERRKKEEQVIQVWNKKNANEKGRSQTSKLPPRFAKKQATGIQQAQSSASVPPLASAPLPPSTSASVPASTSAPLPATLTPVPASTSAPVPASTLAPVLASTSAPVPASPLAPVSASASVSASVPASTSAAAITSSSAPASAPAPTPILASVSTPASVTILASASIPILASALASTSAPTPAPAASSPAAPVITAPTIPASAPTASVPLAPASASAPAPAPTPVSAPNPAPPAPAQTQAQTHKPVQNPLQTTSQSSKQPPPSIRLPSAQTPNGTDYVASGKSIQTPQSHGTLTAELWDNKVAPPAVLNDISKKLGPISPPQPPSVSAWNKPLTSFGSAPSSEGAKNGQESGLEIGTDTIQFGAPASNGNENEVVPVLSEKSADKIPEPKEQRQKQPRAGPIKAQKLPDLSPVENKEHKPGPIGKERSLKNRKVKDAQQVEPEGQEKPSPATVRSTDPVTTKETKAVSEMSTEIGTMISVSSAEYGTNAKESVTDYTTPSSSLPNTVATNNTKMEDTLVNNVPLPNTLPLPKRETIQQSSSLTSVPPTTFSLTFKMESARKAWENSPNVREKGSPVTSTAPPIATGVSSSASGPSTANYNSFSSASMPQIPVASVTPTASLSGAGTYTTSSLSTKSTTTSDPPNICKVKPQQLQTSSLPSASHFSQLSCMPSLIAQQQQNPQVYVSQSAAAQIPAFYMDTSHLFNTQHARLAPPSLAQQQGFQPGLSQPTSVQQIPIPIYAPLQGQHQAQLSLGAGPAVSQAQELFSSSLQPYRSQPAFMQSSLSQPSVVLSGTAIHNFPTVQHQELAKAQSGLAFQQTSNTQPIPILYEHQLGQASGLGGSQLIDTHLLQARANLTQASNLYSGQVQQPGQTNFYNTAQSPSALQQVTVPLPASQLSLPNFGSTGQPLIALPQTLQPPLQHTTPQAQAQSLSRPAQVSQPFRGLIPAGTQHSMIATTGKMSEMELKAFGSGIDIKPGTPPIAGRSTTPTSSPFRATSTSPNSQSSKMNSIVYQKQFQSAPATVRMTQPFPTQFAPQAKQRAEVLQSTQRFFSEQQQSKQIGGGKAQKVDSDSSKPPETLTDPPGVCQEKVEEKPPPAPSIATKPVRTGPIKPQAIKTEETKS
T4 sequence (O00571 2-662 limits assumed): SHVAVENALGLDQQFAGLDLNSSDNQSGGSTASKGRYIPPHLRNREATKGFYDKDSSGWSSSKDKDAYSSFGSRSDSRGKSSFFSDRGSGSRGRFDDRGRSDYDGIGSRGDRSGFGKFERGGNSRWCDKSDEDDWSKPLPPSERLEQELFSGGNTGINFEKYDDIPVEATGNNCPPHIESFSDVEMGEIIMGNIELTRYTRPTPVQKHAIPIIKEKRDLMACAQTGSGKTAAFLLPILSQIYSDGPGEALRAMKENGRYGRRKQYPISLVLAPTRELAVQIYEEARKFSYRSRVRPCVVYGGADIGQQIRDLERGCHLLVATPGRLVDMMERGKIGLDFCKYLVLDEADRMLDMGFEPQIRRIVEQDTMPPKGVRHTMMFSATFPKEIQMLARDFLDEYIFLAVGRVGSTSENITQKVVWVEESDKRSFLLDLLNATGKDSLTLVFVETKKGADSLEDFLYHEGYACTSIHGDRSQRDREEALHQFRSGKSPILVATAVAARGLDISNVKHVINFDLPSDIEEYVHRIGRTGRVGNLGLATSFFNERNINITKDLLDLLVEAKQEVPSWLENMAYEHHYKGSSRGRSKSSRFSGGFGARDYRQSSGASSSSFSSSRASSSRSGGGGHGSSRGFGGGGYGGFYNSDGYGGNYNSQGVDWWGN

co-IP mass spectrometry count (RPS14): 11 | co-IP mass spectrometry count (RPL38): 9
B1: N-terminal FLAG tagged B3GNT2 (enzyme, human, UniProt Q9NY97 1-397, looked up)
chain: MSVGRRRIKLLGILMMANVFIYFIMEVSKSSSQEKNGKGEVIIPKEKFWKISTPPEAYWNREQEKLNRQYNPILSMLTNQTGEAGRLSNISHLNYCEPDLRVTSVVTGFNNLPDRFKDFLLYLRCRNYSLLIDQPDKCAKKPFLLLAIKSLTPHFARRQAIRESWGQESNAGNQTVVRVFLLGQTPPEDNHPDLSDMLKFESEKHQDILMWNYRDTFFNLSLKEVLFLRWVSTSCPDTEFVFKGDDDVFVNTHHILNYLNSLSKTKAKDLFIGDVIHNAGPHRDKKLKYYIPEVVYSGLYPPYAGGGGFLYSGHLALRLYHITDQVHLYPIDDVYTGMCLQKLGLVPEKHKGFRTFDIEEKNKNNICSYVDLMLVHSRKPQEMIDIWSQLQSAHLKC
notes: FLAG-tagged ORF overexpressed in cells; pulled down from lysate with mouse anti-FLAG; also called N-FLAG B3GNT2; N-term FLAG; not shown: N-terminal FLAG tag

co-IP/MS count, N-term FLAG (PRRC2C): 6 | co-IP/MS count, N-term FLAG (TTC13): 0 | co-IP/MS count, N-term FLAG (JUP): 47 | co-IP/MS count, N-term FLAG (DDX3X): 18 | co-IP/MS count, N-term FLAG (ARPC1B): 0 | co-IP/MS count, N-term FLAG (RPL7A): 8
B2: N-terminal FLAG tagged B3GNT2 (enzyme, human, UniProt Q9NY97 1-397, looked up)
chain: B1 chain
notes: FLAG-tagged ORF overexpressed in A375 cells; pulled down from the lysate with mouse anti-FLAG; also called N-FLAG B3GNT2; N-term FLAG; not shown: N-terminal FLAG tag

— US20240261333A1 (published 2024)
